Source: US20250122306A1 (SUTRO BIOPHARMA, published 2025)
Numbering of substitutions follows the chain as printed.

T1: cynomolgus tissue factor (cynomolgus TF, Sino Bio #90885-C08H) (cynomolgus monkey, UniProt P13726 33-251 (human entry))
T1 construct: bought recombinant antigen; also called cyno TF
T1 chain: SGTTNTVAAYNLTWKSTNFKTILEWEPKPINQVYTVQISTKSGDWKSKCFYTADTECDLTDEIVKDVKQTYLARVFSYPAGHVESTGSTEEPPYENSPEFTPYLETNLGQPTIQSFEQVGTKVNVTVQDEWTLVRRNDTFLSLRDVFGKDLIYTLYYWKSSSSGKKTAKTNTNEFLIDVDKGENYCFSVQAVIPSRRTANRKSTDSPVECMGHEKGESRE

T2: cynomolgus tissue factor on HEK293T-cynoTF cells (cynomolgus monkey, UniProt P13726 33-294 (human entry))
T2 construct: stably transfected HEK293T cells
T2 chain: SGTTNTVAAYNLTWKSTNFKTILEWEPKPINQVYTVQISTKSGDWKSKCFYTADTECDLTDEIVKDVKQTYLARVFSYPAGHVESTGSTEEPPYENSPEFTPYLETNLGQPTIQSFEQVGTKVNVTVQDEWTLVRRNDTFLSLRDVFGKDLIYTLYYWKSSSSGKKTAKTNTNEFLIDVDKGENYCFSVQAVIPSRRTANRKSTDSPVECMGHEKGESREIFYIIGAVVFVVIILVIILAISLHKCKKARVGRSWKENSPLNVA

B1: SRP2901-B05 (antibody, V domains shown)
VH: QVQVQESGPGLVKPPGTLSLTCAVSGFSLSYYGVSWVRQPPGKGLEWIGTIDSSGRTYYNPSLKSRVTISNDNAPNTVSLKLSSVTAADTAVYYCARDFYGWNSGALDIWGQGTLVTVSS
VL: DLQLTQSPSTLSASVGDRVTITCRASQSVYSNKYLSWYQQKPGKAPKLLIYKASTLASGVPSRFSGSGSGTEFTLTISSLQPDDFATYYCAAAYSDDSDTAFGQGTKVEIK
notes: humanized rabbit antibody, variable regions fused to human IGHG1 and IGKC; also called 2842-G04 HC2/LC2
B2: SRP2901-D03 (antibody, V domains shown)
VH: EVQLVESGGGLVQPGGSLRLSCAASGFSISSYDMSWVRQAPGKGLEWIGIIGSNGRTYYPDSVKGRFTISRDNSKNTVTLQMNSLRAEDTAVYYCARGLYDGTGNIWGQGTLVTVSS
VL: DLQMTQSPSSLSASVGDRVTITCRASQSVYGNNWLSWYQQKPGKAPKLLIYGASKLASGVPSRFSGSGSGTQFTLTISSLQPEDFATYYCQGTYYSGDWYFAFGQGTKVEIK
notes: humanized rabbit antibody, variable regions fused to human IGHG1 and IGKC; also called 2842-B01 HC3/LC1
B3: 2842-B01 HC1/LC2 (antibody, V domains shown)
VH: B2 VH with E1Q, L4V, Q13K, V37I, P60A, D72N, N73T, S74N, K75E, T79Y
VL: ELVMTQSPPTLSLSPGERVTLSCRASQSVYGNNWLSWYQQKPGQAPRLLIYGASKLATSIPARFSGSGSGTQFTLTISSLQPEDFAVYYCQGTYYSGDWYFAFGQGTKVEIK
notes: humanized rabbit antibody, variable regions fused to human IGHG1 and IGKC
B4: mAb 37: aTF_2842-B01_Hc3_Y180/F404TAG pAzMeF; aTF_2842-B01_Lc2 (antibody, IgG1, V domains shown)
VH: B2 VH
VL: ELVMTQSPPTLSLSPGERVTLSCRASQSVYGNNWLSWYQQKPGQAPRLLIYGASKLATSIPARFSGSGSGTQFTLTISSLQPEDFAVYYCQGTYYSGDWYFAFGQGTKVEIKR
modifications: pAzMeF at Y180 and F404 (EU), * in the sequence
notes: unconjugated full-length IgG1/kappa, cell-free expressed; also called 2842-B01 HC3/LC2; 2842-B01-HC3/LC2 Y180/F404
B5: SRP2901-F01 (antibody, V domains shown)
VH: B2 VH with E1Q, L4V, Q13K, V37I, P60A, D72N, N73T, S74N, K75E, T79Y
VL: B2 VL with L2I, R24Q, Q72D, Q105G
notes: humanized rabbit antibody, variable regions fused to human IGHG1 and IGKC; also called 2842-B01 HC1/LC3
B6: SRP2901-E03 (antibody, V domains shown)
VH: B2 VH
VL: B3 VL
notes: humanized rabbit antibody, variable regions fused to human IGHG1 and IGKC; also called 2842-B01 HC3/LC2
B7: Conjugate 7: 2900-A02 F241/F404 LP2 (antibody, human IgG1, kappa)
heavy: MEVQLVESGGGLVQPGGSLRLSCAASGFTISGYIIHWVRQAPGKGLEWVGYIDPSNGYTYYADSVKGRFTISADTSKNTAYLQMNSLRAEDTAVYYCARDDQSLSSPFDYWGQGTLVTVSSASTKGPSVFPLAPSSKSTSGGTAALGCLVKDYFPEPVTVSWNSGALTSGVHTFPAVLQSSGLYSLSSVVTVPSSSLGTQTYICNVNHKPSNTKVDKKVEPKSCDKTHTCPPCPAPELLGGPSVLFPPKPKDTLMISRTPEVTCVVVDVSHEDPEVKFNWYVDGVEVHNAKTKPREEQYNSTYRVVSVLTVLHQDWLNGKEYKCKVSNKALPAPIEKTISKAKGQPREPQVYTLPPSREEMTKNQVSLTCLVKGFYPSDIAVEWESNGQPENNYKTTPPVLDSDGSFLYSKLTVDKSRWQQGNVFSCSVMHEALHNHYTQKSLSLSPGK
light: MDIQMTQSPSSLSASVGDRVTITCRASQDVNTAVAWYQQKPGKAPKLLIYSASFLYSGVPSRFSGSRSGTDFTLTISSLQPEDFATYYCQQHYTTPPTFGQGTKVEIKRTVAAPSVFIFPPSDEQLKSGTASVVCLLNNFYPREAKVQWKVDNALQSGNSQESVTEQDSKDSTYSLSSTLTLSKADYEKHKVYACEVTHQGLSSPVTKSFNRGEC
modifications: pAMF at F241 and F404 (EU), each linked to LP2 (DBCO-beta-Glucuronide-PEG12-Exatecan)
notes: antibody-drug conjugate, DAR about 4; also called Trastuzumab LC SerOpt

Tests used:
[1] = target: tissue factor reagent of the Tissue Factor Activity Assay Kit (Abcam #ab108906) (UniProt P13726 33-295, limits assumed); assay: cell-based or functional assay
[2] = target: T3, human tissue factor on cells (human, UniProt P13726 33-295); assay: flow cytometry on BxPC3 cells (TF positive), one-site fit of MFI
T3 construct: cell-surface TF, transfected (HEK293T-humanTF) or endogenous (tumour lines, keratinocytes); the cell line is named under assay; also called HEK293T-humanTF; TF on BxPC3, primary human keratinocytes, NCI-H292, HCC1954, NCI-H1975
From the text: (§1) HEK293T, BxPC3 cells (TF positive) and NCI-H1703 (TF negative) cells were obtained from ATCC (American Type Culture Collection) and maintained in DMEM: F12 (1:1), high glucose (Corning) supplemented with 10% heat-inactivated fetal bovine serum (ThermoScientific), 1× Penicillin/Streptomycin (Corning) and 2 mmol glutamax (Thermo Fisher Scientific). To generate cells that stably expressing human tissue factor (HEK293T-humanTF) or cynomolgus tissue factor (HEK293T-cynoTF), HEK293T cells were transfected with plasmid vectors that contain the corresponding protein sequence and stable clones were selected with puromycin.
(§2) For a fluorescence-activated cell sorting (FACS) cell-binding assay, cells were collected by Accutase and counted by the Vi-CELL Cell Viability Analyzersharvested and, then re-suspended in FACS buffer (DPBS buffer supplemented with 1% bovine serum albumin). A total of 200,000 cells in 100 μL were incubated on ice with 100 μL of anti-TF antibodies in each well of a 96-well plate. Cells were washed twice with ice-cold FACS buffer and then incubated on ice for 60 mins with 5 μg/mL Alexa 647-labeled donkey anti-human Fc antibody (Jackson ImmunoResearch). Unstained cells and cells stained with secondary antibody alone were used as controls. Cells were washed twice with FACS buffer and analyzed using a BD FACS Canto system. Geometric mean fluorescence intensities (MFI) were fitted using non-linear regression analysis with one site specific binding equation on GraphPad Prism (GraphPad Software; La Jolla, CA).

[3] = target: T4, human tissue factor (human TF, Lake Pharma) (human, UniProt P13726 33-251, limits assumed); assay: Biacore SPR, single-point off-rate (100 nM antigen), antibody captured on anti-Fc
T4 construct: bought recombinant antigen; also called CD142

[4] = target: T1, cynomolgus tissue factor (cynomolgus …); assay: as above
[5] = target: T2, cynomolgus tissue factor on …; assay: flow cytometry on HEK293T-cynoTF cells, one-site fit of MFI
From the text: as §1, §2

[6] = target: T3, human tissue factor on cells; assay: flow cytometry on HEK293T-humanTF cells, one-site fit of MFI
From the text: as §1, §2

[7] = target: T3, human tissue factor on cells; assay: flow cytometry on primary human keratinocytes, one-site fit of MFI
Procedure: To evaluate antibody binding activity of the anti-TF antibodies on the adult primary keratinocytes, a total of 100,000 keratinocytes per well were incubated on ice with serial dilutions of anti-TF antibodies in FACS buffer (PBS buffer supplemented with 1% bovine serum albumin, 0.05% sodium azide) for 60 minutes. Cells were washed twice with ice-cold FACS buffer and then incubated with 5 microgram/mL Alexa 647 labeled donkey anti-human Fc antibody (Jackson ImmunoResearch, West Grove, PA) on ice for another 60 minutes. Unstained cells and cells stained with secondary antibodies alone were used as controls. Samples were then washed twice using FACS buffer and analyzed using an Attune flow cytometer (Thermo Fisher). Geometric mean fluorescence intensities were fitted using non-linear regression analysis with one site specific binding equation on GraphPad Prism.

[8] = target: T4, human tissue factor (human TF, Lake …); assay: Biacore SPR kinetics, antibody captured on anti-Fc, 1:1 Langmuir fit
Procedure: (§3) Anti-Fc polyclonal antibodies were immobilized onto a CM4 chip (Cytiva #BR100534) using amine coupling chemistry (Human Antibody Capture Kit, Cytiva #BR100839). The immobilization steps were carried out at a flow rate of 25 μL/min in 1×HBS-EP+buffer (Cytiva #BR100669). The sensor surfaces were activated for 7 min with a mixture of N-hydroxysuccinimide (NHS, 0.05 M) and 1-ethyl-3-(3-dimethylaminopropyl)-carbodiimide (EDC, 0.2 M). The anti-Fc polyclonal antibodies were injected over all 4 flow cells at a concentration of 25 μg/mL in 10 mM sodium acetate, pH 4.5, for 7 min. Ethanolamine (1 M, pH 8.5) was injected for 7 min to block any remaining activated groups.
(§4) Off-rate and kinetic binding experiments were performed at 25° C. using 1×HBS-EP+buffer. Antibodies were injected over the anti-Fc surface at a concentration of 3 μg/mL for 12 seconds at a flow rate of 10 μL/min on flow cells 2, 3 and 4, followed by a buffer wash for 30 seconds at the same flow rate. Single point off-rate analysis was carried out using an antigen concentration of 100 nM. […] After capturing ligand (antibody) on the anti-Fc surface, the analyte (human TF, Lake Pharma; cynomolgus TF, Sino Bio #90885-C08H; mouse TF, R&D Systems #3178-PA) was bound for 180 seconds, followed by a 420 second dissociation phase at a flow rate of […]. Between each ligand capture and analyte binding cycle, regeneration was carried out using 2 injections of 10 mM glycine pH 2.0 for 30 seconds at 30 μL/min, followed by a 30 second buffer wash step.
(§5) The data were fit with the Biacore T200 Evaluation software, using a 1:1 Langmuir binding model. KD (affinity, nM) was determined as a ratio of the kinetic rate constants calculated from the fits of the association and dissociation phases.

[9] = target: T1, cynomolgus tissue factor (cynomolgus …); assay: as above
Procedure: as §3, §4, §5

[10] = target: T4, human tissue factor (human TF, Lake …); assay: Biacore SPR kinetics, ADC captured on anti-Fc, 1:1 Langmuir fit
Procedure: (§6) Anti-Fc polyclonal antibodies were immobilized onto a CM4 chip (Cytiva #BR100534) using amine coupling chemistry (Human Antibody Capture Kit, Cytiva #BR100839). The immobilization steps were carried out at a flow rate of […] in 1×HBS-EP+buffer (Cytiva #BR100669). The sensor surfaces were activated for 7 min with a mixture of NHS (0.05 M) and EDC (0.2 M). The Anti-Fc antibodies were injected over all 4 flow cells at a concentration of 25 μg/ml in 10 mM sodium acetate, pH 4.5, for 7 min. Ethanolamine (1 M, pH 8.5) was injected for 7 min to block any remaining activated groups. […] Off-rate and kinetic binding experiments were performed at 25° C. using 1×HBS-EP+buffer. Antibodies or ADCs were injected over the anti-Fc surface at a concentration of 3 μg/mL for 12 seconds at a flow rate of 10 μL/min on flow cells 2, 3 and 4, followed by a buffer wash for 30 seconds at the same flow rate. […] After capturing ligand (antibody) on the anti-Fc surface, the analyte (human TF, Lake Pharma; cynomolgus TF, Sino Bio #90885-C08H; mouse TF, R&D Systems #3178-PA) was bound for 180 seconds, followed by a 420 second dissociation phase at a flow rate of 50 μL/min. Between each ligand capture and analyte binding cycle, regeneration was carried out using 2 injections of 10 mM Glycine pH 2.0 for 30 seconds at 30 μL/min, followed by a 30 second buffer wash step. The data was fit with the Biacore T200 Evaluation software, using a 1-1 Langmuir binding model. KD (affinity, nM) was determined as a ratio of the kinetic rate constants calculated from the fits of the association and dissociation phases.

[11] = target: T1, cynomolgus tissue factor (cynomolgus …); assay: as above
Procedure: as §6

tissue factor reagent of the Tissue Factor Activity Assay Kit (Abcam #ab108906), sequence (P13726 33-295 limits assumed): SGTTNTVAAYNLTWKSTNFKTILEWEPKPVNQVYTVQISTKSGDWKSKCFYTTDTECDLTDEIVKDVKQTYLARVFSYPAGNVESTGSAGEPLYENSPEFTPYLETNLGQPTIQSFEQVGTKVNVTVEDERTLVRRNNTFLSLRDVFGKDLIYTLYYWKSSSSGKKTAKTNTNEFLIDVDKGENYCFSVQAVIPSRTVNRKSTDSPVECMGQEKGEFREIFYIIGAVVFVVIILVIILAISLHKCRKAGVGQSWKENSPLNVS

Row | Binder | FX conversion (% inhibition), 1000 nM antibody [1] [%] | Bmax (MFI) [2] [MFI] | Kd [2] [nM] | koff [3] [s⁻¹] | koff [4] [s⁻¹] | also measured
1 | B1 | 0.62 | 42800 | 0.389 | 0.000736 | 0.0017 | 
2 | B2 | -1.6 | 29100 | 0.344 | 0.000416 | 0.00187 | 
3 | B3 | -0.99 |  |  | 0.000691 | 0.00142 | 
4 | B4 |  |  |  |  |  | Bmax (MFI) [5]: 493000 MFI; Kd [5]: 3.9 nM; Bmax (MFI) [6]: 334000 MFI; Kd [6]: 3.9 nM; Kd [7]: 24 nM; Kd [8]: 7.3 nM; koff [8]: 0.000418 s⁻¹; kon [8]: 57200 M⁻¹ s⁻¹; Kd [9]: 15.6 nM; koff [9]: 0.00113 s⁻¹; kon [9]: 72400 M⁻¹ s⁻¹
5 | B5 | 0.77 | 25400 | 0.61 | 0.00054 | 0.00117 | 
6 | B6 | -0.84 | 35200 | 0.386 | 0.000361 | 0.000782 | 
7 | B7 |  |  |  |  |  | Kd [10]: 4.11 nM; koff [10]: 0.00209 s⁻¹; kon [10]: 508000 M⁻¹ s⁻¹; Kd [11]: 1.77 nM; koff [11]: 0.00103 s⁻¹; kon [11]: 582000 M⁻¹ s⁻¹
